Data: patent US20180155450A1 (Sanofi, published 2018)

T1: recombinant human IL4 (human, UniProt P05112 25-153)
T1 construct: bought; also called Antigen1
T1 sequence (looked up): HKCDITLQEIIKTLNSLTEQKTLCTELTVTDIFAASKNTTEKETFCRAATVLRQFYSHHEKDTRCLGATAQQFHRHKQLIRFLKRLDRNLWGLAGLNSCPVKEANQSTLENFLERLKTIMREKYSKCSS


Assays:
recombinant human IL4 = target: T1, recombinant human IL4; assay: SPR (Biacore 3000), captured CODV-Ig, antigen as analyte;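 further: kd derived from kinetic fits in BIAevaluation 4.1, with signals referenced against a flow cell lacking captured antibody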
Description: (§1) Kinetic binding analysis by Biacore was performed as follows. Surface plasmon resonance technology on a Biacore 3000 (GE Healthcare) was used for detailed kinetic characterization of purified antibodies. […] Chip surfaces were regenerated with 10 mM glycine pH 2.5. Kinetic parameters were analyzed and calculated in the BIAevaluation program package v4.1 using a flow cell without captured antibody as a reference.

recombinant human IL13 = target: T2, recombinant human IL13 (human, UniProt P35225 35-146, limits assumed); assay: as above
T2 construct: bought; also called Antigen2
T2 sequence (P35225 35-146 limits assumed): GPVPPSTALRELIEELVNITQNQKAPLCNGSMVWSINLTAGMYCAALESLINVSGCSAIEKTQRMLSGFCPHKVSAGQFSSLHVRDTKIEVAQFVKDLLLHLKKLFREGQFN
Description: as §1

Row | Binder | Kd (recombinant human IL4) [nM] | Kd (recombinant human IL13) [nM]
1 | CODV-Ig Batch ID 208 (IL4 × IL13 on HC; L1=5, L2=5, L3=2, L4=0) (bispecific antibody, IgG1 CODV-Ig, heavy chain as template; L4 = 0 (no linker)) heavy: not shown light: DIVLTQSPASLAVSLGQRATISCRASESVDSYGQSYMHWYQQKAGQPPKLLIYLASNLESGVPARFSGSGSRTDFTLTIDPVQAEDAATYYCQQNAEDSRTFGGGTKLEIKGGGGGDIQMTQSPASLSVSVGDTITLTCHASQNIDVWLSWFQQKPGNIPKLLIYKASNLHTGVPSRFSGSGSGTGFTLTISSLQPEDIATYYCQQAHSYPFTFGGGTKLEIKGGGGGRTVAAPSVFIFPPSDEQLKSGTASVVCLLNNFYPREAKVQWKVDNALQSGNSQESVTEQDSKDSTYSLSSTLTLSKADYEKHKVYACEVTHQGLSSPVTKSFNRGEC | 0.01 | 
2 | CODV-Ig Batch ID 214 (IL4 × IL13 on HC; L1=5, L2=5, L3=2, L4=2) (bispecific antibody) chain 1: not shown chain 2: DIVLTQSPASLAVSLGQRATISCRASESVDSYGQSYMHWYQQKAGQPPKLLIYLASNLESGVPARFSGSGSRTDFTLTIDPVQAEDAATYYCQQNAEDSRTFGGGTKLEIKGGGGGDIQMTQSPASLSVSVGDTITLTCHASQNIDVWLSWFQQKPGNIPKLLIYKASNLHTGVPSRFSGSGSGTGFTLTISSLQPEDIATYYCQQAHSYPFTFGGGTKLEIKGGGGGRTVAAPSVFIFPPSDEQLKSGTASVVCLLNNFYPREAKVQWKVDNALQSGNSQESVTEQDSKDSTYSLSSTLTLSKADYEKHKVYACEVTHQGLSSPVTKSFNRGEC | 0.01 | 0.053
3 | CODV-Ig Batch ID 210 (IL4 × IL13 on HC; L1=7, L2=5, L3=2, L4=0) (bispecific antibody, IgG1 CODV-Ig, heavy chain as template; L4 = 0 (no linker)) heavy: not shown light: DIVLTQSPASLAVSLGQRATISCRASESVDSYGQSYMHWYQQKAGQPPKLLIYLASNLESGVPARFSGSGSRTDFTLTIDPVQAEDAATYYCQQNAEDSRTFGGGTKLEIKGGGGGGGDIQMTQSPASLSVSVGDTITLTCHASQNIDVWLSWFQQKPGNIPKLLIYKASNLHTGVPSRFSGSGSGTGFTLTISSLQPEDIATYYCQQAHSYPFTFGGGTKLEIKGGGGGRTVAAPSVFIFPPSDEQLKSGTASVVCLLNNFYPREAKVQWKVDNALQSGNSQESVTEQDSKDSTYSLSSTLTLSKADYEKHKVYACEVTHQGLSSPVTKSFNRGEC | 0.004 | 
4 | CODV-Ig Batch ID 204 (IL4 × IL13 on HC; L1=7, L2=5, L3=1, L4=2) (bispecific antibody, IgG1, IgG1 CODV-Ig, heavy chain as template) heavy: not shown light: DIVLTQSPASLAVSLGQRATISCRASESVDSYGQSYMHWYQQKAGQPPKLLIYLASNLESGVPARFSGSGSRTDFTLTIDPVQAEDAATYYCQQNAEDSRTFGGGTKLEIKGGGGGGGDIQMTQSPASLSVSVGDTITLTCHASQNIDVWLSWFQQKPGNIPKLLIYKASNLHTGVPSRFSGSGSGTGFTLTISSLQPEDIATYYCQQAHSYPFTFGGGTKLEIKGGGGGRTVAAPSVFIFPPSDEQLKSGTASVVCLLNNFYPREAKVQWKVDNALQSGNSQESVTEQDSKDSTYSLSSTLTLSKADYEKHKVYACEVTHQGLSSPVTKSFNRGEC | 0.003 | 
5 | CODV-Ig Batch ID 216 (IL4 × IL13 on HC; L1=7, L2=5, L3=2, L4=2) (bispecific antibody) chain 1: not shown chain 2: DIVLTQSPASLAVSLGQRATISCRASESVDSYGQSYMHWYQQKAGQPPKLLIYLASNLESGVPARFSGSGSRTDFTLTIDPVQAEDAATYYCQQNAEDSRTFGGGTKLEIKGGGGGGGDIQMTQSPASLSVSVGDTITLTCHASQNIDVWLSWFQQKPGNIPKLLIYKASNLHTGVPSRFSGSGSGTGFTLTISSLQPEDIATYYCQQAHSYPFTFGGGTKLEIKGGGGGRTVAAPSVFIFPPSDEQLKSGTASVVCLLNNFYPREAKVQWKVDNALQSGNSQESVTEQDSKDSTYSLSSTLTLSKADYEKHKVYACEVTHQGLSSPVTKSFNRGEC | 0.011 | 0.04
6 | CODV-Ig Batch ID 219 (IL4 × IL13 on HC; L1=3, L2=6, L3=3, L4=0) (bispecific antibody) chain 1: not shown chain 2: DIVLTQSPASLAVSLGQRATISCRASESVDSYGQSYMHWYQQKAGQPPKLLIYLASNLESGVPARFSGSGSRTDFTLTIDPVQAEDAATYYCQQNAEDSRTFGGGTKLEIKGGGDIQMTQSPASLSVSVGDTITLTCHASQNIDVWLSWFQQKPGNIPKLLIYKASNLHTGVPSRFSGSGSGTGFTLTISSLQPEDIATYYCQQAHSYPFTFGGGTKLEIKGGGGGGRTVAAPSVFIFPPSDEQLKSGTASVVCLLNNFYPREAKVQWKVDNALQSGNSQESVTEQDSKDSTYSLSSTLTLSKADYEKHKVYACEVTHQGLSSPVTKSFNRGEC | 0.008 | 0.071
7 | CODV-Ig Batch ID 207 (IL4 × IL13 on HC; L1=5, L2=3, L3=2, L4=0) (bispecific antibody) chain 1: not shown chain 2: DIVLTQSPASLAVSLGQRATISCRASESVDSYGQSYMHWYQQKAGQPPKLLIYLASNLESGVPARFSGSGSRTDFTLTIDPVQAEDAATYYCQQNAEDSRTFGGGTKLEIKGGGGGDIQMTQSPASLSVSVGDTITLTCHASQNIDVWLSWFQQKPGNIPKLLIYKASNLHTGVPSRFSGSGSGTGFTLTISSLQPEDIATYYCQQAHSYPFTFGGGTKLEIKGGGRTVAAPSVFIFPPSDEQLKSGTASVVCLLNNFYPREAKVQWKVDNALQSGNSQESVTEQDSKDSTYSLSSTLTLSKADYEKHKVYACEVTHQGLSSPVTKSFNRGEC | 0.003 | 0.033
8 | CODV-Ig Batch ID 213 (IL4 × IL13 on HC; L1=5, L2=3, L3=2, L4=2) (bispecific antibody) chain 1: not shown chain 2: DIVLTQSPASLAVSLGQRATISCRASESVDSYGQSYMHWYQQKAGQPPKLLIYLASNLESGVPARFSGSGSRTDFTLTIDPVQAEDAATYYCQQNAEDSRTFGGGTKLEIKGGGGGDIQMTQSPASLSVSVGDTITLTCHASQNIDVWLSWFQQKPGNIPKLLIYKASNLHTGVPSRFSGSGSGTGFTLTISSLQPEDIATYYCQQAHSYPFTFGGGTKLEIKGGGRTVAAPSVFIFPPSDEQLKSGTASVVCLLNNFYPREAKVQWKVDNALQSGNSQESVTEQDSKDSTYSLSSTLTLSKADYEKHKVYACEVTHQGLSSPVTKSFNRGEC | 0.005 | 0.027
9 | CODV-Ig Batch ID 209 (IL4 × IL13 on HC; L1=7, L2=3, L3=2, L4=0) (bispecific antibody) chain 1: not shown chain 2: DIVLTQSPASLAVSLGQRATISCRASESVDSYGQSYMHWYQQKAGQPPKLLIYLASNLESGVPARFSGSGSRTDFTLTIDPVQAEDAATYYCQQNAEDSRTFGGGTKLEIKGGGGGGGDIQMTQSPASLSVSVGDTITLTCHASQNIDVWLSWFQQKPGNIPKLLIYKASNLHTGVPSRFSGSGSGTGFTLTISSLQPEDIATYYCQQAHSYPFTFGGGTKLEIKGGGRTVAAPSVFIFPPSDEQLKSGTASVVCLLNNFYPREAKVQWKVDNALQSGNSQESVTEQDSKDSTYSLSSTLTLSKADYEKHKVYACEVTHQGLSSPVTKSFNRGEC | 0.005 | 0.047
10 | CODV-Ig Batch ID 215 (IL4 × IL13 on HC; L1=7, L2=3, L3=2, L4=2) (bispecific antibody) chain 1: not shown chain 2: DIVLTQSPASLAVSLGQRATISCRASESVDSYGQSYMHWYQQKAGQPPKLLIYLASNLESGVPARFSGSGSRTDFTLTIDPVQAEDAATYYCQQNAEDSRTFGGGTKLEIKGGGGGGGDIQMTQSPASLSVSVGDTITLTCHASQNIDVWLSWFQQKPGNIPKLLIYKASNLHTGVPSRFSGSGSGTGFTLTISSLQPEDIATYYCQQAHSYPFTFGGGTKLEIKGGGRTVAAPSVFIFPPSDEQLKSGTASVVCLLNNFYPREAKVQWKVDNALQSGNSQESVTEQDSKDSTYSLSSTLTLSKADYEKHKVYACEVTHQGLSSPVTKSFNRGEC | 0.004 | 0.05

More lines, now with the values ahead:

Row | Kd (recombinant human IL4) [nM] | Kd (recombinant human IL13) [nM] | Binder
11 | 0.008 |  | CODV-Ig Batch ID 232 (IL4 × IL13 on HC; L1=5, L2=5, L3=5, L4=0) (bispecific antibody, IgG1 CODV-Ig, heavy chain as template; L4 = 0 (no linker)) heavy: not shown light: DIVLTQSPASLAVSLGQRATISCRASESVDSYGQSYMHWYQQKAGQPPKLLIYLASNLESGVPARFSGSGSRTDFTLTIDPVQAEDAATYYCQQNAEDSRTFGGGTKLEIKGGGGGDIQMTQSPASLSVSVGDTITLTCHASQNIDVWLSWFQQKPGNIPKLLIYKASNLHTGVPSRFSGSGSGTGFTLTISSLQPEDIATYYCQQAHSYPFTFGGGTKLEIKGGGGGRTVAAPSVFIFPPSDEQLKSGTASVVCLLNNFYPREAKVQWKVDNALQSGNSQESVTEQDSKDSTYSLSSTLTLSKADYEKHKVYACEVTHQGLSSPVTKSFNRGEC
12 | 0.003 |  | CODV-Ig Batch ID 234 (IL4 × IL13 on HC; L1=7, L2=5, L3=5, L4=0) (bispecific antibody, IgG1 CODV-Ig, heavy chain as template; L4 = 0 (no linker)) heavy: not shown light: DIVLTQSPASLAVSLGQRATISCRASESVDSYGQSYMHWYQQKAGQPPKLLIYLASNLESGVPARFSGSGSRTDFTLTIDPVQAEDAATYYCQQNAEDSRTFGGGTKLEIKGGGGGGGDIQMTQSPASLSVSVGDTITLTCHASQNIDVWLSWFQQKPGNIPKLLIYKASNLHTGVPSRFSGSGSGTGFTLTISSLQPEDIATYYCQQAHSYPFTFGGGTKLEIKGGGGGRTVAAPSVFIFPPSDEQLKSGTASVVCLLNNFYPREAKVQWKVDNALQSGNSQESVTEQDSKDSTYSLSSTLTLSKADYEKHKVYACEVTHQGLSSPVTKSFNRGEC
13 | 0.006 | 0.068 | CODV-Ig Batch ID 225 (IL4 × IL13 on HC; L1=3, L2=6, L3=3, L4=2) (bispecific antibody) chain 1: not shown chain 2: DIVLTQSPASLAVSLGQRATISCRASESVDSYGQSYMHWYQQKAGQPPKLLIYLASNLESGVPARFSGSGSRTDFTLTIDPVQAEDAATYYCQQNAEDSRTFGGGTKLEIKGGGDIQMTQSPASLSVSVGDTITLTCHASQNIDVWLSWFQQKPGNIPKLLIYKASNLHTGVPSRFSGSGSGTGFTLTISSLQPEDIATYYCQQAHSYPFTFGGGTKLEIKGGGGGGRTVAAPSVFIFPPSDEQLKSGTASVVCLLNNFYPREAKVQWKVDNALQSGNSQESVTEQDSKDSTYSLSSTLTLSKADYEKHKVYACEVTHQGLSSPVTKSFNRGEC
14 | 0.007 | 0.053 | CODV-Ig Batch ID 222 (IL4 × IL13 on HC; L1=6, L2=6, L3=3, L4=0) (bispecific antibody) chain 1: not shown chain 2: DIVLTQSPASLAVSLGQRATISCRASESVDSYGQSYMHWYQQKAGQPPKLLIYLASNLESGVPARFSGSGSRTDFTLTIDPVQAEDAATYYCQQNAEDSRTFGGGTKLEIKGGGGGGDIQMTQSPASLSVSVGDTITLTCHASQNIDVWLSWFQQKPGNIPKLLIYKASNLHTGVPSRFSGSGSGTGFTLTISSLQPEDIATYYCQQAHSYPFTFGGGTKLEIKGGGGGGRTVAAPSVFIFPPSDEQLKSGTASVVCLLNNFYPREAKVQWKVDNALQSGNSQESVTEQDSKDSTYSLSSTLTLSKADYEKHKVYACEVTHQGLSSPVTKSFNRGEC
15 | 0.007 | 0.044 | CODV-Ig Batch ID 228 (IL4 × IL13 on HC; L1=6, L2=6, L3=3, L4=2) (bispecific antibody) chain 1: not shown chain 2: DIVLTQSPASLAVSLGQRATISCRASESVDSYGQSYMHWYQQKAGQPPKLLIYLASNLESGVPARFSGSGSRTDFTLTIDPVQAEDAATYYCQQNAEDSRTFGGGTKLEIKGGGGGGDIQMTQSPASLSVSVGDTITLTCHASQNIDVWLSWFQQKPGNIPKLLIYKASNLHTGVPSRFSGSGSGTGFTLTISSLQPEDIATYYCQQAHSYPFTFGGGTKLEIKGGGGGGRTVAAPSVFIFPPSDEQLKSGTASVVCLLNNFYPREAKVQWKVDNALQSGNSQESVTEQDSKDSTYSLSSTLTLSKADYEKHKVYACEVTHQGLSSPVTKSFNRGEC
